For assay [1], the target named is microtubules polymerised from porcine brain tubulin (porcine) (UniProt P02550). The experiment in a line: TIRF microscopy (sfGFP fluorescence intensity on immobilised microtubules); as a3, but DCLK1 pre-incubated with 2 mM ATP for 30 min at 25°C.
The target is the same in assay [2]. The experiment in a line: co-sedimentation; as a5, but DCLK1 pre-incubated with 2 mM ATP at 25°C for 30 min.
Assay [3] has the same target. The experiment in a line: co-sedimentation; 500 nM sfGFP-DCLK1 with 2 μM taxol-stabilized microtubules, 25°C 20 min, pelleted at 90,000 xg; 50 mM Tris pH 8, 150 mM K acetate, 2 mM Mg acetate, 1 mM EGTA, 10% glycerol; DCLK1 pre-incubated 30 min without ATP.
For assay [4] the target is unchanged. As to the kind of experiment: TIRF microscopy (sfGFP fluorescence intensity on immobilised microtubules); non-stabilized GDP microtubules grown from GMPCPP seeds fixed to the coverslip; 10 nM DCLK1 with 10 uM tubulin and 2 mM GTP in BRB80-based assay buffer; DCLK1 pre-incubated 30 min at 25°C without ATP.
Assay [5] shares this target. As to the kind of experiment: TIRF microscopy (sfGFP fluorescence intensity on immobilised microtubules); taxol-stabilized microtubules immobilised on the glass surface, sfGFP-DCLK1 flowed in; no ATP; 60 mM HEPES pH 7.4, 50 mM K acetate, 2 mM Mg acetate, 1 mM EGTA, 10% glycerol, biotin-BSA, Pluronic, κ-casein, 10 μM …; KD from a one-site-binding hyperbola fit of intensity against concentration.

For assay [6] the target is unchanged. As to the kind of experiment: TIRF microscopy (sfGFP fluorescence intensity on immobilised microtubules); as a1, but DCLK1 incubated with 2 mM ATP for 30 min at 25°C before it was flowed onto immobilised taxol-stabilized microtubules; KD from a one-site-binding hyperbola fit.

microtubules polymerised from porcine brain tubulin (porcine), sequence (P02550 whole entry, chain 1 of 2): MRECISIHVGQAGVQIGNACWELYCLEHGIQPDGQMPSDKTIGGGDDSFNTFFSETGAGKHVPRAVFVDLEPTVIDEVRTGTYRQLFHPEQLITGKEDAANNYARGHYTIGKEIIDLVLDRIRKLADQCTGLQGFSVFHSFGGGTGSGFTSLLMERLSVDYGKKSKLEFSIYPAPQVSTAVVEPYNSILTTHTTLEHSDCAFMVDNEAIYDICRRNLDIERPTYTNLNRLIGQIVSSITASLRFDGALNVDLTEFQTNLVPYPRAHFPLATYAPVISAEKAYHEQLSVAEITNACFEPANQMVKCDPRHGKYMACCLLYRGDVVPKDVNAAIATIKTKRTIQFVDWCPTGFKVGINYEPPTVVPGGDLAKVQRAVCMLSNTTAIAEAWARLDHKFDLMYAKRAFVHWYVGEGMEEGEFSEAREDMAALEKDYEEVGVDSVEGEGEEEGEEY
microtubules polymerised from porcine brain tubulin (porcine), sequence (P02554 whole entry, chain 2 of 2, further chain): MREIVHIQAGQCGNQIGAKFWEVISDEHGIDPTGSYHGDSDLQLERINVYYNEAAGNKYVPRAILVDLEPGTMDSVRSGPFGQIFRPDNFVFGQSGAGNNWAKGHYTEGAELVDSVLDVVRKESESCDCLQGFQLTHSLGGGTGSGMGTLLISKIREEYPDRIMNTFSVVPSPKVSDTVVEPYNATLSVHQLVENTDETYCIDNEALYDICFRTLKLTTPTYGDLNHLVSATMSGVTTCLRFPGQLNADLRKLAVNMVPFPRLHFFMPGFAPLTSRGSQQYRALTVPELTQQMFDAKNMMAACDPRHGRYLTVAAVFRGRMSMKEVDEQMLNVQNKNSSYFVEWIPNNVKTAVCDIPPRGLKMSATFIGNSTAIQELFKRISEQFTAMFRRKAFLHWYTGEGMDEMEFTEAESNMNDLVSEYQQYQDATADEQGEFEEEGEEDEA

The substance “sfGFP-DCLK1 wild type (mouse, aa 1-740), co-expressed with lambda phosphatase, autophosphorylated by 30 min with 2 mM ATP (natural protein)” came in with a microtubule-bound fluorescence intensity at 10 nM in assay [1] of 12500. The percent of DCLK1 that co-pelleted with microtubules in assay [2] was found to be 86.2%.
In assay [3], “sfGFP-DCLK1 wild type (mouse, aa 1-740), co-expressed with lambda phosphatase, not incubated with ATP (natural protein)” had a percent of DCLK1 that co-pelleted with microtubules of 99.3%. In assay [4], this substance displayed a microtubule-bound fluorescence intensity at 10 nM of 15000.
Take “sfGFP-DCLK1 wild type (mouse, aa 1-740), expressed in bacteria under standard conditions (natural protein)”: in assay [5], the microtubule-bound fluorescence intensity at 3 nM is 2750 and the microtubule-bound fluorescence intensity at 25 nM was determined as 16100.
As for “sfGFP-DCLK1 wild type (mouse, aa 1-740), treated with lambda phosphatase after purification (natural protein)”, in assay [5], the microtubule-bound fluorescence intensity at 3 nM turned out to be 15100 and the microtubule-bound fluorescence intensity at 25 nM is 18200.
As to “sfGFP-DCLK1-D511N (kinase-dead, mouse, full length) (natural protein)”, in assay [5], the microtubule-bound fluorescence intensity at 3 nM was 9070 and the microtubule-bound fluorescence intensity at 25 nM was 19700.
In assay [2], “sfGFP-DCLK1-T688A (mouse, full length), co-expressed with lambda phosphatase, incubated 30 min with 2 mM ATP (natural protein)” displayed a percent of DCLK1 that co-pelleted with microtubules of 7.9%.
Turning to “sfGFP-DCLK1-T688A (mouse, full length), co-expressed with lambda phosphatase, not incubated with ATP (natural protein)”, in assay [3], the percent of DCLK1 that co-pelleted with microtubules stood at 98.9%.
Consider “sfGFP-DCLK1-ΔC (mouse, aa 1-648), co-expressed with lambda phosphatase, hyperphosphorylated by 30 min with 2 mM ATP (domain or fragment)”, for which, in assay [1], the microtubule-bound fluorescence intensity at 10 nM is 1580. The same substance returned a percent of DCLK1 that co-pelleted with microtubules in assay [2] of 6.9%. In assay [6], this substance registered a microtubule-bound fluorescence intensity at 5 nM of 988 and a microtubule-bound fluorescence intensity at 20 nM of 1580.
With “sfGFP-DCLK1-ΔC (mouse, aa 1-648), co-expressed with lambda phosphatase, not incubated with ATP (domain or fragment)”, in assay [3], the percent of DCLK1 that co-pelleted with microtubules worked out at 96.3%. Also, the microtubule-bound fluorescence intensity at 10 nM in assay [4] worked out at 12100. In assay [5], this substance yielded a microtubule-bound fluorescence intensity at 5 nM of 12900 and a microtubule-bound fluorescence intensity at 20 nM of 23600.
In assay [5], “sfGFP-DCLK1-ΔC (mouse, aa 1-648), treated with lambda phosphatase after purification (domain or fragment)” gave a microtubule-bound fluorescence intensity at 3 nM of 12000 and a microtubule-bound fluorescence intensity at 25 nM of 21200.
In assay [6], “sfGFP-DCLK1-ΔC DC1-4A (S77, S83, S96, T143 to alanine), co-expressed with lambda phosphatase, incubated with ATP (domain or fragment)” showed a microtubule-bound fluorescence intensity at 5 nM of 4040 and a microtubule-bound fluorescence intensity at 20 nM of 12600.
Turning to “sfGFP-DCLK1-ΔC DC1-4A (S77, S83, S96, T143 to alanine), co-expressed with lambda phosphatase, not incubated with ATP (domain or fragment)”, in assay [5], the microtubule-bound fluorescence intensity at 5 nM is 12200 and the microtubule-bound fluorescence intensity at 20 nM came to 22300.
Regarding “sfGFP-DCLK1-ΔC DC2-4A (T189, S193, T218, S228 to alanine), co-expressed with lambda phosphatase, incubated with ATP (domain or fragment)”, in assay [6], the microtubule-bound fluorescence intensity at 5 nM turned out to be 2480 and the microtubule-bound fluorescence intensity at 20 nM was 3500.
As for “sfGFP-DCLK1-ΔC DC2-4A (T189, S193, T218, S228 to alanine), co-expressed with lambda phosphatase, not incubated with ATP (domain or fragment)”, in assay [5], the microtubule-bound fluorescence intensity at 5 nM was 8550 and the microtubule-bound fluorescence intensity at 20 nM worked out at 19900.

Source of the values: article PMC8352597.
